{"source": "patent US11274129B2", "about": "“Methods for protein tyrosine phosphorylation profiling with variant SH2 domains” (priority 2016, dated 2022)", "molecules": {"B1": {"name": "Triple mutant: TrM human Src SH2 domain variant with Thr183Val, Cys188Ala and Lys206Leu; His6/GST-tagged form SEQ ID NO: 11 (protein)", "chain": "DSIQAEEWYFGKITRRESERLLLNAENPRGTFLVRESETVKGAYALSVSDFDNAKGLNVKHYLIRKLDSGGFYITSRTQFNSLQQLVAYYSKHADGLCHRLTTVCPTSK", "modifications": "SH2 protein domain; TrM human Src SH2 domain"}}, "key": {"[1]": {"system": "mixture of 54 different pTyr-including peptides derived from 54 TK activation loops", "assay": "Capture of pTyr-including peptides from a mixture of TK activation loop peptides, scheduled PRM", "type": "binding", "method": "Equal molar amounts (10 nmole) of the wild-type (wt) human Src SH2 domain and the DM and TrM human Src SH2 Superbinders (SEQ ID NO: 14 and 5, respectively) expressed with His6 and GST tags were used to capture pTyr-including peptides from a mixture of 54 different pTyr-including peptides (10 pmole each) derived from 54 TK activation loops. The isolated peptides were identified by PRM and quantified based on the corresponding MS peak area. 1.8% of the eluted peptides were injected into a Q-Exactive (Thermo Fisher) preceded with a nano-LC system.\nShown are the amounts of pTyr-including peptides captured, based on the corresponding peak area of PRM signal, by each of the parent human Src SH2 domain and the DM and TrM human Src SH2 Superbinders."}, "[2]": {"biological_target": "VEGFR1-pTyr^1213 peptide DVRpYVNAAKF", "conditions": "peptide VEGFR1-pTyr^1213 DVRpYVNAAKF; read-out: equilibrium dissociation constant (Kd); cited from earlier work"}, "[3]": {"biological_target": "EGFR-pTyr^978 peptide PQRpYLVIQGD", "conditions": "peptide EGFR-pTyr^978 PQRpYLVIQGD; read-out: equilibrium dissociation constant (Kd); cited from earlier work"}, "[4]": {"biological_target": "EGFR-pTyr^1110 peptide NPVpYHNQPLN", "conditions": "peptide EGFR-pTyr^1110 NPVpYHNQPLN; read-out: equilibrium dissociation constant (Kd); cited from earlier work"}, "[5]": {"biological_target": "MidT-pTyr^324 peptide EPQpYEEIPIYL", "conditions": "peptide MidT-pTyr^324 EPQpYEEIPIYL; read-out: equilibrium dissociation constant (Kd); cited from earlier work"}, "[6]": {"biological_target": "RSKL-pTyr^423 peptide YQHpYDLDLKD", "conditions": "peptide RSKL-pTyr^423 YQHpYDLDLKD; read-out: equilibrium dissociation constant (Kd); cited from earlier work"}, "[7]": {"biological_target": "ShcA-pTyr^239 peptide DHQpYYNDFPG", "conditions": "peptide ShcA-pTyr^239 DHQpYYNDFPG; read-out: equilibrium dissociation constant (Kd); cited from earlier work"}, "[8]": {"biological_target": "ShcA-pTyr^317 peptide DPSpYVNVQNL", "conditions": "peptide ShcA-pTyr^317 DPSpYVNVQNL; read-out: equilibrium dissociation constant (Kd); cited from earlier work"}, "Designed peptide GGpYGG": {"biological_target": "Designed peptide GGpYGG", "conditions": "read-out: equilibrium dissociation constant (Kd); cited from earlier work"}}}
{"molecule": "B1", "values": [{"measurement": "number of the 54 pTyr-including peptides captured / detected by PRM", "setting": "[1]; 10 nmole SH2 domain, 10 pmole each peptide", "value": 54}, {"measurement": "PRM signal peak area", "setting": "[1]; BLK (pTyr389) IIDSEpYTAQEGAK, fragment ion b2", "value": "156,244"}, {"measurement": "PRM signal peak area", "setting": "[1]; BMX (pTyr566) YVLDDQpYVSSVGTK, fragment ion b2", "value": "151,470"}, {"measurement": "PRM signal peak area", "setting": "[1]; BTK (pTyr551) YVLDDEpYTSSVGSK, fragment ion b2", "value": "1,311,693"}, {"measurement": "PRM signal peak area", "setting": "[1]; DDR1 (pTyr796/797) NLYAGDpYpYR, fragment ion b2", "value": "337,871"}, {"measurement": "PRM signal peak area", "setting": "[1]; DDR2 (pTyr740/741) NLYSGDpYpYR, fragment ion y6", "value": "184,684"}, {"measurement": "PRM signal peak area", "setting": "[1]; EPHA1 (pTyr781) LLDDFDGTpYETQGGK, fragment ion y9", "value": "188,365"}, {"measurement": "PRM signal peak area", "setting": "[1]; EPHA2 (pTyr772) VLEDDPEATpYTTSGGK, fragment ion y11", "value": "347,030"}, {"measurement": "PRM signal peak area", "setting": "[1]; EPHA3 (pTyr779) VLEDDPEAApYTTR, fragment ion y8", "value": "394,218"}, {"measurement": "PRM signal peak area", "setting": "[1]; EPHA6 (pTyr830) VLEDDPEAApYTTTGGK, fragment ion b2", "value": "287,653"}, {"measurement": "PRM signal peak area", "setting": "[1]; EPHA8 (pTyr793) VLEDDPDAApYTTTGGK, fragment ion y11", "value": "585,234"}, {"measurement": "PRM signal peak area", "setting": "[1]; EPHB1 (pTyr778) YLQDDTSDPTpYTSSLGGK, fragment ion y10", "value": "205,974"}, {"measurement": "PRM signal peak area", "setting": "[1]; EPHB2 (pTyr780) FLEDDTSDPTpYTSALGGK, fragment ion Y3", "value": "215,302"}, {"measurement": "PRM signal peak area", "setting": "[1]; EPHB3 (pTyr792) FLEDDPSDPTpYTSSLGGK, fragment ion y10", "value": "260,454"}, {"measurement": "PRM signal peak area", "setting": "[1]; EPHB4 (pTyr774) FLEENSSDPTpYTSSLGGK, fragment ion y10", "value": "134,156"}, {"measurement": "PRM signal peak area", "setting": "[1]; ERBB2 (pTyr877) LLDIDETEpYHADGGK, fragment ion b3", "value": "42,655"}, {"measurement": "PRM signal peak area", "setting": "[1]; ERBB3 (pTyr866) QLLpYSEAK, fragment ion y2", "value": "164,128"}, {"measurement": "PRM signal peak area", "setting": "[1]; FER (pTyr714) QEDGGVpYSSSGLK, fragment ion y7", "value": "27,417"}, {"measurement": "PRM signal peak area", "setting": "[1]; FES (pTyr713) EEADGVpYAASGGLR, fragment ion y8", "value": "25,101"}, {"measurement": "PRM signal peak area", "setting": "[1]; FGFR1 (pTyr653/654) DIHHIDpYpYK, fragment ion b6", "value": "51,243"}, {"measurement": "PRM signal peak area", "setting": "[1]; FGFR2 (pTyr656/657) DINNIDpYpYK, fragment ion y4", "value": "87,143"}, {"measurement": "PRM signal peak area", "setting": "[1]; FGFR3 (pTyr647/648) DVHNLDpYpYK, fragment ion b3", "value": "258,435"}, {"measurement": "PRM signal peak area", "setting": "[1]; FGFR4 (pTyr642/643) GVHHIDpYpYK, fragment ion b3", "value": "36,105"}, {"measurement": "PRM signal peak area", "setting": "[1]; FRK (pTyr387) VDNEDIpYESR, fragment ion y6", "value": "290,546"}, {"measurement": "PRM signal peak area", "setting": "[1]; GSK3 (pTyr279/216) GEPNVSpYICSR, fragment ion y6", "value": "48,337"}, {"measurement": "PRM signal peak area", "setting": "[1]; HCK (pTyr411) VIEDNEpYTAR, fragment ion b2", "value": "383,521"}, {"measurement": "PRM signal peak area", "setting": "[1]; INSRR (pTyr1145/1146) DVYETDpYpYR, fragment ion y5", "value": "20,796"}, {"measurement": "PRM signal peak area", "setting": "[1]; ITK (pTyr512) FVLDDQpYTSSTGTK, fragment ion y11", "value": "403,125"}, {"measurement": "PRM signal peak area", "setting": "[1]; JAK1 (pTyr1034/1035) EpYpYTVK, fragment ion y2", "value": "109,611"}, {"measurement": "PRM signal peak area", "setting": "[1]; JAK2 (pTyr221) IQDpYHILTR, fragment ion Y3", "value": "85,513"}, {"measurement": "PRM signal peak area", "setting": "[1]; JAK3 (pTyr980/981) DpYpYVVR, fragment ion y2", "value": "19,712"}, {"measurement": "PRM signal peak area", "setting": "[1]; KIT (pTyr823) NDSNpYVVK, fragment ion b2", "value": "234,665"}, {"measurement": "PRM signal peak area", "setting": "[1]; LMTK2 (pTyr295) EDpYIETDDK, fragment ion b2", "value": "20,896"}, {"measurement": "PRM signal peak area", "setting": "[1]; LMTK3 (pTyr296/297) EDpYpYLTPER, fragment ion y3", "value": "375,974"}, {"measurement": "PRM signal peak area", "setting": "[1]; MERTK (pTyr753/754) IYSGDpYpYR, fragment ion b2", "value": "26,483"}, {"measurement": "PRM signal peak area", "setting": "[1]; MET (pTyr1234/1235) EpYpYSVHNK, fragment ion y2", "value": "111,218"}, {"measurement": "PRM signal peak area", "setting": "[1]; MUSK (pTyr755/756) NIYSADpYpYK, fragment ion y2", "value": "178,086"}, {"measurement": "PRM signal peak area", "setting": "[1]; NTRK1 (pTyr680/681) DIYSTDpYpYR, fragment ion b2", "value": "103,368"}, {"measurement": "PRM signal peak area", "setting": "[1]; NTRK2 (pTyr706/707) DVYSTDpYpYR, fragment ion y4", "value": "114,762"}, {"measurement": "PRM signal peak area", "setting": "[1]; PGFRB (pTyr857) DSNpYISK, fragment ion y2", "value": "398,271"}, {"measurement": "PRM signal peak area", "setting": "[1]; PTK7 (pTyr960/961) DVYNSEpYpYHFR, fragment ion b2", "value": "8,863"}, {"measurement": "PRM signal peak area", "setting": "[1]; RET (pTyr905) DVYEEDSpYVK, fragment ion b2", "value": "882,529"}, {"measurement": "PRM signal peak area", "setting": "[1]; RON (pTyr1238/1239) EpYpYSVQQHR, fragment ion y4", "value": "44,290"}, {"measurement": "PRM signal peak area", "setting": "[1]; ROR1 (pTyr645/646) EIYSADpYpYR, fragment ion y6", "value": "177,244"}, {"measurement": "PRM signal peak area", "setting": "[1]; ROR2 (pTyr645/646) EVYAADpYpYK, fragment ion y5", "value": "334,295"}, {"measurement": "PRM signal peak area", "setting": "[1]; SRC (pTyr419) LIEDNEpYTAR, fragment ion b2", "value": "99,515"}, {"measurement": "PRM signal peak area", "setting": "[1]; SRMS (pTyr380) DDIpYSPSSSSK, fragment ion y8", "value": "478,598"}, {"measurement": "PRM signal peak area", "setting": "[1]; TEC (pTyr519) YVLDDQpYTSSSGAK, fragment ion b2", "value": "781,110"}, {"measurement": "PRM signal peak area", "setting": "[1]; TIE1 (pTyr1007) GEEVpYVK, fragment ion b2", "value": "409,242"}, {"measurement": "PRM signal peak area", "setting": "[1]; TIE2 (pTyr992) GQEVpYVK, fragment ion b2", "value": "209,701"}, {"measurement": "PRM signal peak area", "setting": "[1]; TXK (pTyr420) YVLDDEpYVSSFGAK, fragment ion b2", "value": "271,650"}, {"measurement": "PRM signal peak area", "setting": "[1]; TYK2 (pTyr1054/1055) AVPEGHEpYpYR, fragment ion y6", "value": "53,473"}, {"measurement": "PRM signal peak area", "setting": "[1]; VGFR1 (pTyr1053) NPDpYVR, fragment ion y3", "value": "158,244"}, {"measurement": "PRM signal peak area", "setting": "[1]; VGFR2 (pTyr1059) DPDpYVR, fragment ion Y3", "value": "196,659"}, {"measurement": "Kd", "setting": "[2]", "value": 23, "unit": "nM"}, {"measurement": "Kd", "setting": "[3]", "value": 7.7, "unit": "nM"}, {"measurement": "Kd", "setting": "[4]", "value": 76, "unit": "nM"}, {"measurement": "Kd", "setting": "[5]", "value": 3.8, "unit": "nM"}, {"measurement": "Kd", "setting": "[6]", "value": 13, "unit": "nM"}, {"measurement": "Kd", "setting": "[7]", "value": 3.8, "unit": "nM"}, {"measurement": "Kd", "setting": "[8]", "value": 7.5, "unit": "nM"}, {"measurement": "Kd", "setting": "Designed peptide GGpYGG", "value": 510, "unit": "nM"}]}
